Experimental data reported in patent US12427210B2, “Compounds comprising a fibroblast activation protein ligand and use thereof” (priority 2019, dated 2025).

T1: A2A (h) (human), P29274
T1 chain: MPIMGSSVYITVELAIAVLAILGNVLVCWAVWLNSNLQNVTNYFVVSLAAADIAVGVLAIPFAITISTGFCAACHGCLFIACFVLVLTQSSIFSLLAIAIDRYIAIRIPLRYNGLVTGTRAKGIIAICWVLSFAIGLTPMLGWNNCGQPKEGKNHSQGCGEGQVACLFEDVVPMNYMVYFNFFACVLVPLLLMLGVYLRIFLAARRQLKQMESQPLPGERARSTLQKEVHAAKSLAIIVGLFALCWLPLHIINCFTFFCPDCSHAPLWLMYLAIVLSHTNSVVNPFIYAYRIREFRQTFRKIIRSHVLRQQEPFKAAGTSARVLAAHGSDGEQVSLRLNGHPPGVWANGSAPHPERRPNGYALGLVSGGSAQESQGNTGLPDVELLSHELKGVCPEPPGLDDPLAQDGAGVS

T2: ETA (h) (human), P25101
T2 chain: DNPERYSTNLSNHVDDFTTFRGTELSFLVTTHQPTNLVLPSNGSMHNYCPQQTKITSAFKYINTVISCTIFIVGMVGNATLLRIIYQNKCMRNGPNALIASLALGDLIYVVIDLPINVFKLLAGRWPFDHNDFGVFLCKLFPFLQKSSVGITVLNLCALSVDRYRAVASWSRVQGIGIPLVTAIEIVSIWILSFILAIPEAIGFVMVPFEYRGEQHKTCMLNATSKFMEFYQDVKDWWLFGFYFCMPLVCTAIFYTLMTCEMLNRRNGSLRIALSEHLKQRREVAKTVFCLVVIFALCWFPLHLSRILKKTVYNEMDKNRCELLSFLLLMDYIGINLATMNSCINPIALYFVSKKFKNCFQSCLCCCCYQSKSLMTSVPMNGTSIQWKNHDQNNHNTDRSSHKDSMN

T3: M2 (h) (human), P08172
T3 chain: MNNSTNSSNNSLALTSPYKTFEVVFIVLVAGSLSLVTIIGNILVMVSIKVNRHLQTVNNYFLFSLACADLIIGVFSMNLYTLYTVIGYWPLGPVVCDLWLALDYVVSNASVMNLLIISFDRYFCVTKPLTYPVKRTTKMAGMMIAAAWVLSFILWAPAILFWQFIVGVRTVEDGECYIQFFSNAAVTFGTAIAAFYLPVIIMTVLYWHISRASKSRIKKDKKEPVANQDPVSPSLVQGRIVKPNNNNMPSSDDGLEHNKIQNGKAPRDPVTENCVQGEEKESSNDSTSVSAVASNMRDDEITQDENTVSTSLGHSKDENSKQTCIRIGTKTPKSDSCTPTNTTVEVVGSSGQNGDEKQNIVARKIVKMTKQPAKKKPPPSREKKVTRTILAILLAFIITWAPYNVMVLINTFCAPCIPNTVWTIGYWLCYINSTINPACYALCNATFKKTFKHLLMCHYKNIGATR

T4: alpha 2A (h) (human), P08913
T4 chain: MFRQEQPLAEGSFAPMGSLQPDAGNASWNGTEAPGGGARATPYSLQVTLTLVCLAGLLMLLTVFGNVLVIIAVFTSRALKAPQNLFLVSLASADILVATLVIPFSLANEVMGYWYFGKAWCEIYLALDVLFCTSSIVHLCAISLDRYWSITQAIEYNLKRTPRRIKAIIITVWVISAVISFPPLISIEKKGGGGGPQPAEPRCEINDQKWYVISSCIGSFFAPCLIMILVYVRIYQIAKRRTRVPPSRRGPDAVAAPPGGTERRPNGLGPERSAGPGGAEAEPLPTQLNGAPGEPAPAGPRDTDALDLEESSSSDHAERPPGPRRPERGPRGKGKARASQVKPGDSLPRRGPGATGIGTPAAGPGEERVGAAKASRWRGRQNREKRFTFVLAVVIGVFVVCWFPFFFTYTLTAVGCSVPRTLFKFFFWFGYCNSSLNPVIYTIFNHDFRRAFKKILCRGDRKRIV


Legend:
Settings in all cases: remark: other sources report otherwise
[1] = target: 5-HT2A (h) (human), P28223; assay: radioligand displacement, compound at 10 µM
[2] = target: T1, A2A (h) (human), P29274; assay: radioligand displacement, compound at 10 µM
[3] = target: T2, ETA (h) (human), P25101; assay: radioligand displacement, compound at 10 µM
[4] = target: T3, M2 (h) (human), P08172; assay: radioligand displacement, compound at 10 µM
[5] = target: T4, alpha 2A (h) (human), P08913; assay: radioligand displacement, compound at 10 µM
[6] = target: human fibroblast activation protein (FAP) on human WI-38 fibroblasts (human); assay: competitive FACS binding on FAP-expressing WI-38 cells against 3 nM Cy5-labeled compound; category A = pIC50 values >8.0

5-HT2A (h) (human), P28223, sequence (P28223 whole entry): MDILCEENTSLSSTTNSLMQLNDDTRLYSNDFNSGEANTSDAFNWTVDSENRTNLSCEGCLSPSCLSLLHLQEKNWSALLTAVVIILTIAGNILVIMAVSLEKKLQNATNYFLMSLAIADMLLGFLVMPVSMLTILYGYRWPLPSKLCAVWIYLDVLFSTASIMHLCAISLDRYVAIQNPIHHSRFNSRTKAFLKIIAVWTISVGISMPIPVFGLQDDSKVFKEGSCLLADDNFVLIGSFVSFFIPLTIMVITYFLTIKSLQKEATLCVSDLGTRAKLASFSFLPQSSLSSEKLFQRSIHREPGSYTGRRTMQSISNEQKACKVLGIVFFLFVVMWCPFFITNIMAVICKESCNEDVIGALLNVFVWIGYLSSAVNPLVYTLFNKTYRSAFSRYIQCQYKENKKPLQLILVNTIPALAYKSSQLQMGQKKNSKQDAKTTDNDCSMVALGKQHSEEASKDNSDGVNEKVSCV

| Binder | % Inhibition of Specific Binding [1] [%] | % Inhibition of Specific Binding [2] [%] | % Inhibition of Specific Binding [3] [%] | % Inhibition of Specific Binding [4] [%] | % Inhibition of Specific Binding [5] [%] | pIC50 Category (FACS) [6] [pIC50] |
| --- | --- | --- | --- | --- | --- | --- |
| CPPTQFCD (here or on the partner: N-terminal hexanoyl (Hex); Cys1 and Cys7 cyclised through tMeBn carrying DOTA-PP; C-terminal amide) [Hex-[Cys(tMeBn(DOTA-PP))-Pro-Pro-Thr-Gln-Phe-Cys]-Asp-NH2 (3BP-3407)] | -2 | -4 | -18 | -4 | -9 | – |
| CPPTQFC (here or on the partner: N-terminal hexanoyl (Hex); Cys1 and Cys7 cyclised through tMeBn carrying DOTA-AET; free C-terminal acid (-OH)) [Hex-[Cys(tMeBn(DOTA-AET))-Pro-Pro-Thr-Gln-Phe-Cys]-OH (3BP-3554)] | 4 | -16 | 6 | 7 | 2 | > 8 |
